How the values were obtained:
[1] = tested on: Glutaryl-(4-trans-L-Hyp)SSChgQ-SI-DOX (3′)
[2] = tested on: [N-Glutaryl-(4-trans-L-Hyp)]-Ala-Ser-Chg-Gln-Ser-Leu-Dox
[3] = tested on: Glutaryl-(4-trans-L-Hyp)SSChgQ-SL-DOX (3′)
[4] = tested on: Ac-(4-trans-L-Hyp)ASChgQ-SThi-acid
[5] = tested on: PEG(2)-(4-trans-L-Hyp)ASChgQ-SL-DOX (3′)
[6] = tested on: Ac-(4-trans-L-Hyp)ASChgQ-SLacid
[7] = tested on: Succinyl-(4-trans-L-Hyp)ASChgQ-SV-DOX (3′)
[8] = tested on: Succinyl-(4-trans-L-Hyp)ASChgQ-SI-DOX (3′)
[9] = tested on: PEG(2)-(4-trans-L-Hyp)ASChgQ-SThi-DOX (3′)
[10] = tested on: Succinyl-3,4-(diOH)PASChgQ-SL-DOX (3′)
[11] = tested on: PEG(2)-(4-trans-L-Hyp)SSChgQ-SL-DOX (3′)
[12] = tested on: [N-Ac-(4-trans-L-Hyp)]-Ala-Ser-Chg-Gln-Ser-Leu-Dox
[13] = tested on: Glutaryl-(4-trans-L-Hyp)ASChgQ-SV-DOX (3′)
[14] = tested on: Succinyl-(4-trans-L-Hyp)ASChgQ-SThi-DOX (3′)
[15] = tested on: Glutaryl-(4-trans-L-Hyp)ASChgQ-SI-DOX (3′)
[16] = tested on: Succinyl-(4-trans-L-Hyp)SSChgQ-SI-DOX (3′)
[17] = tested on: Succinyl-(4-trans-L-Hyp)ASChgQ-SAbu-DOX (3′)
[18] = tested on: Ac-(4-trans-L-Hyp)ASChgQ-StBUAla-DOX (3′)
[19] = tested on: PEG(4)-(4-trans-L-Hyp)-SSChgQ-SL-DOX (3′)
[20] = tested on: (4-trans-L-Hyp)-Ala-Ser-Chg-Gln-Ser-Leu-Dox
[21] = tested on: Malonyl-(4-trans-L-Hyp)ASChgQ-SL-DOX (3′)

free prostate specific antigen (PSA)
time required for 50% cleavage of the oligopeptide [1]: 50% cleavage occurred in less than 2 hours for those conjugates
time required for 50% cleavage of the oligopeptide [2]: 50% cleavage occurred in less than 2 hours for those conjugates
time required for 50% cleavage of the oligopeptide [3]: 50% cleavage occurred in less than 2 hours for those conjugates
Time to 50% Substrate Cleavage by PSA [4]: 20 min
Time to 50% Substrate Cleavage by PSA (Ac-PASChgQ-SL-acid): 150 min
Time to 50% Substrate Cleavage by PSA [5]: 20 min
Time to 50% Substrate Cleavage by PSA [6]: 75 min
time required for 50% cleavage of the oligopeptide [7]: 50% cleavage occurred in less than 2 hours for those conjugates
Time to 50% Substrate Cleavage by PSA (Ac-PSSChgQ-SV-acid): 120 min
time required for 50% cleavage of the oligopeptide [8]: 50% cleavage occurred in less than 2 hours for those conjugates
time required for 50% cleavage of the oligopeptide [9]: 50% cleavage occurred in less than 2 hours for those conjugates
time required for 50% cleavage of the oligopeptide [10]: 50% cleavage occurred in less than 2 hours for those conjugates
time required for 50% cleavage of the oligopeptide [11]: 50% cleavage occurred in less than 2 hours for those conjugates
Time to 50% Substrate Cleavage by PSA [12]: 20 min
time required for 50% cleavage of the oligopeptide [13]: 50% cleavage occurred in less than 2 hours for those conjugates
time required for 50% cleavage of the oligopeptide [14]: 50% cleavage occurred in less than 2 hours for those conjugates
time required for 50% cleavage of the oligopeptide [15]: 50% cleavage occurred in less than 2 hours for those conjugates
time required for 50% cleavage of the oligopeptide [16]: 50% cleavage occurred in less than 2 hours for those conjugates
time required for 50% cleavage of the oligopeptide [17]: 50% cleavage occurred in less than 2 hours for those conjugates
Time to 50% Substrate Cleavage by PSA [18]: 25 min
time required for 50% cleavage of the oligopeptide [19]: 50% cleavage occurred in less than 2 hours for those conjugates
time required for 50% cleavage of the oligopeptide [20]: 50% cleavage occurred in less than 2 hours for those conjugates
time required for 50% cleavage of the oligopeptide [21]: 50% cleavage occurred in less than 2 hours for those conjugates

Reference: patent US20020115596
